Data reported in US20220112244A1 (DOMPE FARMACEUTICI S P A, published 2022).

The binders below were run against IL-17A (agonist in the IL-17RA/IL17RC dimerization assay) (UniProt Q16552 24-155) (assay: cell-based or functional assay).
IL-17A (agonist in the IL-17RA/IL17RC dimerization assay), sequence (Q16552 24-155 limits assumed): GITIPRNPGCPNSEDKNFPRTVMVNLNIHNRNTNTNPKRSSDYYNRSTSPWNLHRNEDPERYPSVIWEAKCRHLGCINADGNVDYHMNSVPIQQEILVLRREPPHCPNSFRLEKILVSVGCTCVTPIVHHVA
In the case of Ac-VMVTIPADLYEWIEEGGKETWWETW-NH2 [peptide of SEQ ID NO: 25], the “IC50 in IL-17RA/IL7RC dimerization assay” value is reported as < 1 µM.
With Ac-VHVTFPADLWEWVRR-NH2 [peptide of SEQ ID NO: 114] the “IC50 in IL-17RA/IL7RC dimerization assay” value was < 0.5 µM.
Ac-VPGWGVMVTIPADLYEWIEE-NH2 [peptide of SEQ ID NO: 34] was tested, and the “IC50 in IL-17RA/IL7RC dimerization assay” value was < 1 µM.
In the case of Ac-VRGYVPADLWDWINK-NH2 [peptide of SEQ ID NO: 242], the “IC50 in IL-17RA/IL7RC dimerization assay” value is reported as < 10 µM.
Ac-VHVTIPADFWEWVRR-NH2 [peptide of SEQ ID NO: 117] was tested, and the “IC50 in IL-17RA/IL7RC dimerization assay” value was < 0.5 µM.
In the case of Ac-VEFNFPQQVYEWFDD-NH2 [peptide of SEQ ID NO: 255], the “IC50 in IL-17RA/IL7RC dimerization assay” value is reported as < 10 µM.
In the case of Ac-VHVSVPQELYEWVRR-NH2 [peptide of SEQ ID NO: 232], the “IC50 in IL-17RA/IL7RC dimerization assay” value is reported as < 10 µM.
For Ac-IHVTIPGEIFEWLQH-NH2 [peptide of SEQ ID NO: 250], the “IC50 in IL-17RA/IL7RC dimerization assay” value was < 10 µM.
For Ac-VRLYVPADLWDWINK-NH2 [peptide of SEQ ID NO: 244], the “IC50 in IL-17RA/IL7RC dimerization assay” value was < 10 µM.
Ac-VKISVPLEIFEWLQH-NH2 [peptide of SEQ ID NO: 254] was tested, and the “IC50 in IL-17RA/IL7RC dimerization assay” value was < 10 µM.
For Ac-IHVTIPLEIFEWLQR-NH2 [peptide of SEQ ID NO: 248], the “IC50 in IL-17RA/IL7RC dimerization assay” value was < 10 µM.
In the case of Ac-VMVTIPADLYEWIEERQIKIWFQNRRMKWKK-NH2 [peptide of SEQ ID NO: 28], the “IC50 in IL-17RA/IL7RC dimerization assay” value is reported as < 1 µM.
For Ac-VMVTIPADLYEWIEEVPGKG-NH2 [peptide of SEQ ID NO: 26], the “IC50 in IL-17RA/IL7RC dimerization assay” value was < 1 µM.
In the case of Ac-VHVTVPQELFEWVEE-NH2 [peptide of SEQ ID NO: 228], the “IC50 in IL-17RA/IL7RC dimerization assay” value is reported as < 10 µM.
For Ac-ARKKAAKAVMVTIPADLYEWIEE-NH2 [peptide of SEQ ID NO: 31], the “IC50 in IL-17RA/IL7RC dimerization assay” value was < 1 µM.
For Ac-VMVTIPADLYEWIEEVPGWG-NH2 [peptide of SEQ ID NO: 24], the “IC50 in IL-17RA/IL7RC dimerization assay” value was < 1 µM.
With Ac-VMVTIPADLYEWIEERRRRRR-NH2 [peptide of SEQ ID NO: 19] the “IC50 in IL-17RA/IL7RC dimerization assay” value was < 1 µM.
With Ac-VHVTIPAELWEWVRR-NH2 [peptide of SEQ ID NO: 111] the “IC50 in IL-17RA/IL7RC dimerization assay” value was < 0.5 µM.
In the case of Ac-IHVTIPLEIFEWLQH-NH2 [peptide of SEQ ID NO: 246], the “IC50 in IL-17RA/IL7RC dimerization assay” value is reported as < 10 µM.
In the case of Ac-VHVQIPADLWEWVRR-NH2 [peptide of SEQ ID NO: 113], the “IC50 in IL-17RA/IL7RC dimerization assay” value is reported as < 0.5 µM.
For Ac-VHVTIPQDLWEWVRR-NH2 [peptide of SEQ ID NO: 115], the “IC50 in IL-17RA/IL7RC dimerization assay” value was < 0.5 µM.
Ac-VHVTVPQELYEWVEE-NH2 [peptide of SEQ ID NO: 229] was tested, and the “IC50 in IL-17RA/IL7RC dimerization assay” value was < 10 µM.
In the case of Ac-VHVSVPQELWEWVRR-NH2 [peptide of SEQ ID NO: 231], the “IC50 in IL-17RA/IL7RC dimerization assay” value is reported as < 10 µM.
For Ac-VEFNFPQQVYEWVRR-NH2 [peptide of SEQ ID NO: 256], the “IC50 in IL-17RA/IL7RC dimerization assay” value was < 10 µM.
In the case of Ac-VRVTVPQELYEWVRR-NH2 [peptide of SEQ ID NO: 234], the “IC50 in IL-17RA/IL7RC dimerization assay” value is reported as < 10 µM.
For Ac-VHVTVPQELWEWVEE-NH2 [peptide of SEQ ID NO: 227], the “IC50 in IL-17RA/IL7RC dimerization assay” value was < 10 µM.
With Ac-LRIYVPADLWDWINK-NH2 [peptide of SEQ ID NO: 241] the “IC50 in IL-17RA/IL7RC dimerization assay” value was < 10 µM.
For Ac-VRFSVPQEIYEWVRR-NH2 [peptide of SEQ ID NO: 251], the “IC50 in IL-17RA/IL7RC dimerization assay” value was < 10 µM.
Ac-VMVTIPADLYEWIEEVPGAG-NH2 [peptide of SEQ ID NO: 27] was tested, and the “IC50 in IL-17RA/IL7RC dimerization assay” value was < 1 µM.
For Ac-VHVTIPANLWEWVRR-NH2 [peptide of SEQ ID NO: 116], the “IC50 in IL-17RA/IL7RC dimerization assay” value was < 0.5 µM.
In the case of Ac-VMVTIPADLYEWIEEARKKAAKA-NH2 [peptide of SEQ ID NO: 21], the “IC50 in IL-17RA/IL7RC dimerization assay” value is reported as < 1 µM.
In the case of Ac-VMVTIPADLYEWIEERRRRRRRR-NH2 [peptide of SEQ ID NO: 30], the “IC50 in IL-17RA/IL7RC dimerization assay” value is reported as < 1 µM.
For Ac-VRVTIPQELWEWVRR-NH2 [peptide of SEQ ID NO: 233], the “IC50 in IL-17RA/IL7RC dimerization assay” value was < 10 µM.
For Ac-LRISVPLEIFEWLQH-NH2 [peptide of SEQ ID NO: 252], the “IC50 in IL-17RA/IL7RC dimerization assay” value was < 10 µM.
Ac-VRVTVPQELWEWVRR-NH2 [peptide of SEQ ID NO: 235] was tested, and the “IC50 in IL-17RA/IL7RC dimerization assay” value was < 10 µM.
In the case of Ac-VMVTIPADLYEWIEEGGTWWTEWSQ-NH2 [peptide of SEQ ID NO: 22], the “IC50 in IL-17RA/IL7RC dimerization assay” value is reported as < 1 µM.
Ac-LRISVPADLWDWINK-NH2 [peptide of SEQ ID NO: 240] was tested, and the “IC50 in IL-17RA/IL7RC dimerization assay” value was < 10 µM.
Ac-VMVTIPADLYEWIEETWWETWW-NH2 [peptide of SEQ ID NO: 23] was tested, and the “IC50 in IL-17RA/IL7RC dimerization assay” value was < 1 µM.
In the case of Ac-VMVTIPADLYEWIRR-NH2 [peptide of SEQ ID NO: 17], the “IC50 in IL-17RA/IL7RC dimerization assay” value is reported as < 0.4 µM.
For Ac-VHVTVPQEIYEWVRR-NH2 [peptide of SEQ ID NO: 236], the “IC50 in IL-17RA/IL7RC dimerization assay” value was < 10 µM.
For Ac-VRAYVPADLWDWINK-NH2 [peptide of SEQ ID NO: 243], the “IC50 in IL-17RA/IL7RC dimerization assay” value was < 10 µM.
Ac-VHFTVPQELYEWVRR-NH2 [peptide of SEQ ID NO: 238] was tested, and the “IC50 in IL-17RA/IL7RC dimerization assay” value was < 10 µM.
Ac-VRIYLPADLWDWINK-NH2 [peptide of SEQ ID NO: 245] was tested, and the “IC50 in IL-17RA/IL7RC dimerization assay” value was < 10 µM.
With Ac-IHVTIPLEVFEWLQH-NH2 [peptide of SEQ ID NO: 249] the “IC50 in IL-17RA/IL7RC dimerization assay” value was < 10 µM.
Ac-VHVTIPQEIWEWVRR-NH2 [peptide of SEQ ID NO: 237] was tested, and the “IC50 in IL-17RA/IL7RC dimerization assay” value was < 10 µM.
For Ac-VKISVPADLWDWINK-NH2 [peptide of SEQ ID NO: 239], the “IC50 in IL-17RA/IL7RC dimerization assay” value was < 10 µM.
Ac-LRGSVPLEIFEWLQH-NH2 [peptide of SEQ ID NO: 253] was tested, and the “IC50 in IL-17RA/IL7RC dimerization assay” value was < 10 µM.
With Ac-VMVTIPADLYEWIEERRR-NH2 [peptide of SEQ ID NO: 20] the “IC50 in IL-17RA/IL7RC dimerization assay” value was < 1 µM.
Ac-GGKETWWETWVMVTIPADLYEWIEE-NH2 [peptide of SEQ ID NO: 33] was tested, and the “IC50 in IL-17RA/IL7RC dimerization assay” value was < 1 µM.
With Ac-IHVTIPAELWDWINK-NH2 [peptide of SEQ ID NO: 5] the “IC50 in IL-17RA/IL7RC dimerization assay” value was < 0.1 µM.
For Ac-IHVTIPLEIFEWAQH-NH2 [peptide of SEQ ID NO: 247], the “IC50 in IL-17RA/IL7RC dimerization assay” value was < 10 µM.
For Ac-VHVTIPADLYEWVRR-NH2 [peptide of SEQ ID NO: 118], the “IC50 in IL-17RA/IL7RC dimerization assay” value was < 0.5 µM.
For Ac-IMVTIPADLWDWINK-NH2 [peptide of SEQ ID NO: 3], the “IC50 in IL-17RA/IL7RC dimerization assay” value was < 0.4 µM.
With Ac-VPGKGVMVTIPADLYEWIEE-NH2 [peptide of SEQ ID NO: 36] the “IC50 in IL-17RA/IL7RC dimerization assay” value was < 1 µM.
Ac-VPGAGVMVTIPADLYEWIEE-NH2 [peptide of SEQ ID NO: 35] was tested, and the “IC50 in IL-17RA/IL7RC dimerization assay” value was < 1 µM.
For Ac-TWYVFNEQHQEYVRK-NH2 [peptide of SEQ ID NO: 257], the “IC50 in IL-17RA/IL7RC dimerization assay” value was < 10 µM.
Ac-VMVTIPADLYEWIEE-NH2 [peptide of SEQ ID NO: 18] was tested, and the “IC50 in IL-17RA/IL7RC dimerization assay” value was < 0.4 µM.
Ac-GGTWWTEWSQVMVTIPADLYEWIEE-NH2 [peptide of SEQ ID NO: 32] was tested, and the “IC50 in IL-17RA/IL7RC dimerization assay” value was < 1 µM.
Ac-VHFTIPADLWEWVRR-NH2 [peptide of SEQ ID NO: 112] was tested, and the “IC50 in IL-17RA/IL7RC dimerization assay” value was < 0.5 µM.
For Ac-RRRRRRRRVMVTIPADLYEWIEE-NH2 [peptide of SEQ ID NO: 29], the “IC50 in IL-17RA/IL7RC dimerization assay” value was < 1 µM.
Ac-VHVSIPQELWEWVRR-NH2 [peptide of SEQ ID NO: 230] was tested, and the “IC50 in IL-17RA/IL7RC dimerization assay” value was < 10 µM.
